We go through one molecule from article doi:10.1101/2024.07.12.603331 (bioRxiv, 2024).

The target in this test is neonatal Fc receptor (FcRn), recombinant ectodomains (UniProt P55899;P61769). The experiment in a line: BLI.

By Kd is commonly meant the equilibrium constant for the complex coming apart.

Chain of neonatal Fc receptor (FcRn), recombinant ectodomains (P55899 24-297, chain 1 of 2): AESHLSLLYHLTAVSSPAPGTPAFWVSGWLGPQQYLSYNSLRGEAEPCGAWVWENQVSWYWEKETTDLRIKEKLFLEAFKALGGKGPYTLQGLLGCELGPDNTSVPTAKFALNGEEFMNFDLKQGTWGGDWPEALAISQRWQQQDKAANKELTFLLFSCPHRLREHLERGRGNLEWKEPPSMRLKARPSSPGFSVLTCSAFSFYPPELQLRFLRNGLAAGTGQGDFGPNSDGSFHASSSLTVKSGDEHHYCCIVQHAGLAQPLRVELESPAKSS
Chain of neonatal Fc receptor (FcRn), recombinant ectodomains (P61769 21-119, chain 2 of 2): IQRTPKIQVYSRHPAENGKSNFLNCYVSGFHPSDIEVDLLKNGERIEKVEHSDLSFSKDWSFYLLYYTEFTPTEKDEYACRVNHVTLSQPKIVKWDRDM

B1: HAstV1 spike protein VP25 (residues S424 to R648) (domain or fragment)
chain: SIPAPGEEFKVVLTFGAPMSPNANNKQTWVNKPLDAPSGHYNVKIAKDVDHYLTMQGFTSIASVDWYTIDFQPSEAPAPIQGLQVLVNSSKKADVYAIKQFVTAQTNNKHQVTSLFLVKVTTGFQVNNYLSYFYRASATGDATTNLLVRGDTYTAGISFTQGGWYLLTNTSIVDGAMPPGWVWNNVELKTNTAYHMDKGLVHLIMPLPESTQMCYEMLTSIPRSR
modifications: biotin (EZ-link NHS-PEG4-Biotin)
For B1, the Kd was 578 nM.
